Results published in patent US20190336574A1 (TRUSTEES OF PRINCETON UNIVERSITY, published 2019).
Residue numbers refer to the chain shown, from its start.

Legend:
[1] = target: T1, murine SND1 F250A (shRNA-resistant construct) (mouse, UniProt Q78PY7 1-910); experiment: co-IP (anti-MTDH) from SND1-KD PyMT;Mtdh+/+ tumor cells reconstituted with SND1 constructs, western blot
T1 sequence (looked up): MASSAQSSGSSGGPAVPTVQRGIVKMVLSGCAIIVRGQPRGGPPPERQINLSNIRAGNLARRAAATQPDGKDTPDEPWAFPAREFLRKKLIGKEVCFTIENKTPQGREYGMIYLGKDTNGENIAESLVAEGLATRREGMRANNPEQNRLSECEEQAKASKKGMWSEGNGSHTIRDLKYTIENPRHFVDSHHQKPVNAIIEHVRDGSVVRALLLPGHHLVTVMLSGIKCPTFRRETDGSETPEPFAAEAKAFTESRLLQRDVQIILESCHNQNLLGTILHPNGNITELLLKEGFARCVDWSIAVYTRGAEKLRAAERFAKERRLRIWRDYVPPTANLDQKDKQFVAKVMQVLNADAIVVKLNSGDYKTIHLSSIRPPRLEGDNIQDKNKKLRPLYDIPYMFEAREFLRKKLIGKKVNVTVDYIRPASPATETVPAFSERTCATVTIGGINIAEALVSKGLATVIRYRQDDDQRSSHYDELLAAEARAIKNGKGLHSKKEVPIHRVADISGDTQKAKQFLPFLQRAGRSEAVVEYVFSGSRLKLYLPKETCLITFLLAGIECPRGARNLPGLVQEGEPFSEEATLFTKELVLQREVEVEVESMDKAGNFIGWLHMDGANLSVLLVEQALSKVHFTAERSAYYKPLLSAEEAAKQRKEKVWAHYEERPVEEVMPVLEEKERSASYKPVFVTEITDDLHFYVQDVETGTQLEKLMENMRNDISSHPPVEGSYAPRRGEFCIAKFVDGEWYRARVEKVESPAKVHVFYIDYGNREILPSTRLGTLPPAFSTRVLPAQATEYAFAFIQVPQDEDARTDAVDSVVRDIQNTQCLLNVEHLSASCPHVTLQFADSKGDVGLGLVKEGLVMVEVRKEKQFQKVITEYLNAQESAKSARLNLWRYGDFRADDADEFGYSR

[2] = target: T2, murine SND1 R255E (shRNA-resistant construct) (mouse, UniProt Q78PY7 1-910); experiment: as above
T2 sequence (looked up): T1 sequence (looked up) with A250F, R255E

murine SND1, wild type = target: T3, murine SND1, wild type (mouse, UniProt Q78PY7 1-910); experiment: anti-MTDH co-IP from PyMT;Mtdh-/- tumor cells reconstituted with murine MTDH, western blot
T3 construct: Endogenous protein of murine PyMT mammary tumor cells; also called SND1 (in PyMT tumor cells); WT shRNA-resistant murine SND1
T3 sequence (looked up): T1 sequence (looked up) with A250F
Experimental: (FIG. 23A) Lysates from PyMT;Mtdh−/− tumor cells reconstituted with vector control, WT or mutant murine MTDH were immunoprecipitated with anti-MTDH antibody and immunoblotted for indicated proteins. Note all amino acid annotations are based on human MTDH. W394 and W401 of human MTDH correspond to W391 and W398 in murine MTDH, respectively. (FIG. 23B) Mammosphere assays were performed with PyMT;Mtdh−/− tumor cells reconstituted with indicated MTDH constructs. (FIG. 23C-E) In vivo tumor formation (FIG. 23C for tumor incidence; FIG. 23D, FIG. 23E for tumor volumes) were performed at limiting numbers using PyMT;Mtdh−/− tumor cells reconstituted with indicated WT or mutant MTDH. Statistics: (FIG. 23B) Student's t-test. Data represent mean±SEM. (FIG. 23C) Limiting dilution analysis. (FIG. 23D, FIG. 23E) Mann-Whitney test. **p<0.01, *p<0.05.
Immunoprecipitation and western blot: For in vivo immunoprecipitation (IP) experiments, cultured cells were washed in cold PBS and lysed in lysis buffer (20 mM Tris pH 7.4, 0.15 M NaCl, 1 mM EDTA, 1 mM EGTA, 1% Tx-100, 0.0025 M Na2P2O7, 1 mM β-glycerolphosphate, 1 mM Na3VO4, and 1 mM NaF) with an EDTA-free protease inhibitor mixture (Roche Applied Science) and PMSF. Cell lysates were then incubated on ice for 10 min, centrifuged, and precleared by incubating with protein A/G beads (Santa Cruz Biotechnology) for 1 h at 4° C. […]

B1: murine MTDH, wild type (other, mouse, UniProt Q80WJ7 1-579, looked up)
chain: MAARSWQDELAQQAEEGSARLRELLSVGLGFLRTELGLDLGLEPKRYPGWVILVGTGALGLLLLFLLGYGWAAACAGARKKRRSPPRKREEAAPPTPAPDDLAQLKNLRSEEQKKKNRKKLPEKPKPNGRTVEVPEDEVVRNPRSITAKQAPETDKKNEKSKKNKKKSKSDAKAVQNSSRHDGKEVDEGAWETKISHREKRQQRKRDKVLTDSGSLDSTIPGIENIITVTTEQLTTASFPVGSKKNKGDSHLNVQVSNFKSGKGDSTLQVSSRLNENLTVNGGGWSEKSVKLSSQLSEEKWNSVPPASAGKRKTEPSAWTQDTGDTNANGKDWGRNWSDRSIFSGIGSTAEPVSQSTTSDYQWDVSRNQPYIDDEWSGLNGLSSADPSSDWNAPAEEWGNWVDEDRASLLKSQEPISNDQKVSDDDKEKGEGALPTGKSKKKKKKKKKQGEDNSHTQDTEDLEKDTREELPVNTSKARPKQEKACSLKTMSTSDPAEVLIKNSQPVKTLPPAISAEPSITLSKGDSDNSSSQVPPMLQDTDKPKSNAKQNSVPPSQTKSETNWESPKQIKKKKKARRET
notes: Re-expressed by lentivirus in PyMT;Mtdh-/- tumor cells; also used for the endogenous protein of PyMT;Mtdh+/+ cells (same protein); also called mouse MTDH; WT MTDH (murine form)
[1]
  binding result: no binding
[2]
  binding result: no binding
Murine SND1, wild type
  binding result: binds
